From patent CN115073593A (SHANGHAI JUNSHI BIOSCIENCES CO LTD; JUNMENG BIOSCIENCES CO …, dated 2022)
Residue numbers refer to the chain shown, from its start.

B1: JS016-40 (antibody, V domains shown)
VH: EVQLVESGGGLVQPGGSLRLSCAASGFTVGWNYMSWVRQAPGKGLEWVSVIYPGGTTFYADSVKGRFTISRDNSMNTLFLQMNSLRAEDTAVYYCARVLPMYGDYLDYWGQGTLVTVSS
VL: DIVMTQSPSSLSASVGDRVTITCRASQNIERYLNWYQQKPGKAPKLLIYAASSLQSGVPSRFSGSGSGTDFTLTISSLQPEDFATYYCQQSASSTPEYTFGQGTKLEIKR
B2: JS016-41-YTE (antibody, V domains shown)
VH: B1 VH with T28V, G30Q, W31A, T56S
VL: B1 VL
B3: JS016-77-YTE (antibody, V domains shown)
VH: B1 VH with T28V, G30Q, W31A, T56S
VL: B1 VL with E30L, R31P, A92S, S94A, T95V

What follows are binders tested against SARS-CoV-2 omicron突变株假病毒 (SARS-CoV-2 omicron variant) (assay: cell-based or functional assay).

| Binder | IC50(ng/ml), pseudovirus neutralisation, luciferase reporter |
| --- | --- |
| B1 | 24.6 ng/mL |
| B2 | 17.6 ng/mL |
| B3 | 776 ng/mL |
